These results are taken from article PMC4188031.

What all share (assay): SPR (ProteOn XPR36, GLC chip), co-injection mode with pH shift
Holding throughout (details): pH 7.4; 25°C (stated for the immobilisation step; not restated for the binding runs); 150 mM NaCl (plus 20 mM Na-phosphate); PBS-TE: 20 mM Na-phosphate; association at pH 6.0, dissociation at pH 7.4

The target in assay [1] is B21M anti-RSV IgG1 N434A N434A (EU numbering) (UniProt P01857).
Assay [2] addresses B21M anti-RSV IgG1 N434Y N434Y (EU numbering) (UniProt P01857).
Assay [3] deals with B21M anti-RSV IgG1, wild-type Fc (mAb WT) (UniProt P01857).

With neonatal Fc receptor (rat FcRn, rFcRn), the results for the off-rate (koff) after pH shift 6.0 to 7.4 in assay [1], in assay [2] and in assay [3] were 0.09 1/s, 0.02 1/s and 0.07 1/s, respectively.
